Results on 24 molecules are retold here after patent publication US20220307010A1 (TWIST BIOSCIENCE, published 2022).

T1: TIGIT (T cell immunoreceptor with Ig and ITIM domains) (human, UniProt Q495A1 22-141, limits assumed)
T1 construct: also called hTIGIT; human TIGIT
T1 sequence (looked up): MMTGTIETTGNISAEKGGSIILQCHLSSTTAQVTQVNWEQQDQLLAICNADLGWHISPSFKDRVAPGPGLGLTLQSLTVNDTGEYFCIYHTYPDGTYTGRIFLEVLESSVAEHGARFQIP

T2: TIGIT (T cell immunoreceptor with Ig and ITIM domains) (human, UniProt Q495A1 22-141, limits assumed)
T2 construct: also called hTIGIT; human TIGIT
T2 sequence (looked up): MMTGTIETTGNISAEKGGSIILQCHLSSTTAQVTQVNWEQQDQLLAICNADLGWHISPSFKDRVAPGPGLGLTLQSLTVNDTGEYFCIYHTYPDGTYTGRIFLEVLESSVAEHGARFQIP

B1: TIGIT-211-13 (antibody, V domains shown)
VH: EVQLLESGGGLVQPGGSLRLSCAASGFTFNKYPMMWVRQAPGKGLEWVSYISSSGSSTYYADSVKGRFTISRDNSKNTLYLQMNSLRAEDTAVYYCARVIAAAGAFDYWGQGTLVTVSS
VL: DIQMTQSPSSLSASVGDRVTITCRASQSIREYLHWYQQKPGKAPKLLIYFGSELRKGVPSRFSGSGSGTDFTLTISSLQPEDFATYYCGQGVLWPATFGQGTKVEIK
B2: TIGIT-211-95 (antibody, V domains shown)
VH: EVQLLESGGGLVQPGGSLRLSCAASGFTFPKYGMAWVRQAPGKGLEWVSTISSGGGYTYYPDSVKGRFTISRDNSKNTLYLQMNSLRAEDTAVYYCARDTYLHFDYWGQGTLVTVSS
VL: DIQMTQSPSSLSASVGDRVTITCRASQGVRTSLAWYQQKPGKAPKLLIYAKNNRPSGVPSRFSGSGSGTDFTLTISSLQPEDFATYYCQQSYSAPYTFGQGTKVEIK
B3: TIGIT-211-77 (antibody, V domains shown)
VH: EVQLLESGGGLVQPGGSLRLSCAASGFTFGNYAMAWVRQAPGKGLEWVSSIWPSGGQTWYADSVKGRFTISRDNSKNTLYLQMNSLRAEDTAVYYCAKGGTSFDYWGQGTLVTVSS
VL: DIQMTQSPSSLSASVGDRVTITCRASQSVRSYLNWYQQKPGKAPKLLIYAASSLYSGVPSRFSGSGSGTDFTLTISSLQPEDFATYYCQQYASVPVTFGQGTKVEIK
B4: TIGIT-211-98 (antibody, V domains shown)
VH: EVQLLESGGGLVQPGGSLRLSCAASGFTFETYAMSWVRQAPGKGLEWVSVISGSGGRPNYADSVKGRFTISRDNSKNTLYLQMNSLRAEDTAVYYCAREGLWAFDYWGQGTLVTVSS
VL: DIQMTQSPSSLSASVGDRVTITCRASHFIGSLLSWYQQKPGKAPKLLIYETSKLASGVPSRFSGSGSGTDFTLTISSLQPEDFATYYCQQSYSYPRTFGQGTKVEIK
B5: TIGIT-211-93 (antibody, V domains shown)
VH: EVQLLESGGGLVQPGGSLRLSCAASGFTFSRYFMGWVRQAPGKGLEWVSEISPSGKKKYYADSVKGRFTISRDNSKNTLYLQMNSLRAEDTAVYYCAKSSFDKYNFDYWGQGTLVTVSS
VL: DIQMTQSPSSLSASVGDRVTITCSASQDINKYLNWYQQKPGKAPKLLIYHTSRLQSGVPSRFSGSGSGTDFTLTISSLQPEDFATYYCQQFAYFPATFGQGTKVEIK
B6: TIGIT-211-116 (antibody, V domains shown)
VH: EVQLLESGGGLVQPGGSLRLSCAASGFTFSRYFMGWVRQAPGKGLEWVSAISGSGGNTYYADSVKGRFTISRDNSKNTLYLQMNSLRAEDTAVYYCARVWRNHLDYWGQGTLVTVSS
VL: DIQMTQSPSSLSASVGDRVTITCRASQTIERRLNWYQQKPGKAPKLLIYHDNKRPSGVPSRFSGSGSGTDFTLTISSLQPEDFATYYCQQGYTLPWTFGQGTKVEIK
B7: TIGIT-30-15 VHH-V5-His (VHH)
VHH: EVQLVESGGGLVQAGGSLRLSCAASGFTFSGNWMGWFRQAPGKEREWVSGISSGGGRTYYADSVKGRFTISADNAKNTVYLQMNSLKPEDTAVYYCAADVWYGSTWRNWGQGTQVTVSS
notes: not shown: V5-His tag
B8: TIGIT-30-30 VHH-V5-His (VHH)
VHH: EVQLVESGGGLVQAGGSLRLSCAASGGTFSGRGMGWFRQAPGKEREWVSSVYIFGGSTYYADSVKGRFTISADNAKNTVYLQMNSLKPEDTAVYYCANSNKPKFDWGQGTQVTVSS
notes: not shown: V5-His tag
B9: TIGIT-30-52 VHH-V5-His (VHH)
VHH: EVQLVESGGGLVQAGGSLRLSCAASGRTFSNYFMGWFRQAPGKERESVATVTWRDNITYYADSVKGRFTISADNAKNTVYLQMNSLKPEDTAVYYCASAGRWGQGTQVTVSS
notes: not shown: V5-His tag
B10: TIGIT-29-06 VHH-V5-His (VHH)
VHH: EVQLVESGGGLVQAGGSLRLSCAASGGTFRSYVMGWFRQAPGKEREWVATINSSGSRTYYADSVKGRFTISADNAKNTVYLQMNSLKPEDTAVYYCAARPNYRDYEYWGQGTQVTVSS
notes: not shown: V5-His tag
B11: TIGIT-29-01 VHH-V5-His (VHH)
VHH: EVQLVESGGGLVQAGGSLRLSCAASGRTFSNYAMGWFRQAPGKEREFVAAITWSGTRTDYADSVKGRFTISADNAKNTVYLQMNSLKPEDTAVYYCAAAAWTIYEYDYWGQGTQVTVSS
notes: not shown: V5-His tag
B12: TIGIT-29-33 VHH-V5-His (VHH)
VHH: EVQLVESGGGLVQAGGSLRLSCAASGFIFSTYAMGWFRQAPGKERELVSAITRSGITTYYADSVKGRFTISADNAKNTVYLQMNSLKPEDTAVYYCAAAAWTIYEYDYWGQGTQVTVSS
notes: not shown: V5-His tag
B13: TIGIT-29-30 VHH-V5-His (VHH)
VHH: EVQLVESGGGLVQAGGSLRLSCAASGFTFSSYAMGWFRQAPGKEREFVAAITWSGTRTDYADSVKGRFTISADNAKNTVYLQMNSLKPEDTAVYYCAAAAWRYSEYDYWGQGTQVTVSS
notes: not shown: V5-His tag
B14: TIGIT-29-12 VHH-V5-His (VHH)
VHH: EVQLVESGGGLVQAGGSLRLSCAASGSTFSSYAMGWFRQAPGKEREFVAAITWSGTRTNYADSVKGRFTISADNAKNTVYLQMNSLKPEDTAVYYCAAAAWTIYTYDSWGQGTQVTVSS
notes: not shown: V5-His tag
B15: TIGIT-29-07 VHH-V5-His (VHH)
VHH: EVQLVESGGGLVQAGGSLRLSCAASGSIFSNYAMGWFRQAPGKEREFVATISRGGTRTNYADSVKGRFTISADNAKNTVYLQMNSLKPEDTAVYYCAAAAWTIYAYNYWGQGTQVTVSS
notes: not shown: V5-His tag
B16: TIGIT-30-49 VHH-V5-His (VHH)
VHH: EVQLVESGGGLVQAGGSLRLSCAASGNIFSRYIMGWFRQAPGKEREWVAGISNGGTTKYADSVKGRFTISADNAKNTVYLQMNSLKPEDTAVYYCAQGWKIVPTNWGQGTQVTVSS
notes: not shown: V5-His tag
B17: TIGIT-29-10 VHH-V5-His (VHH)
VHH: EVQLVESGGGLVQAGGSLRLSCAASGRTFSNYGMGWFRQAPGKEREFVSGISGSGGRTSYADSVKGRFTISADNAKNTVYLQMNSLKPEDTAVYYCAANLWYPVDRLNTGFNYWGQGTQVTVSS
notes: not shown: V5-His tag
B18: TIGIT-30-43 VHH-V5-His (VHH)
VHH: EVQLVESGGGLVQAGGSLRLSCAASGFTFSTSWMGWFRQAPGKERELVAARNSGGNTNYADSVKGRFTISADNAKNTVYLQMNSLKPEDTAVYYCAADVWYGSTWRNWGQGTQVTVSS
notes: not shown: V5-His tag
B19: TIGIT-30-01 VHH-V5-His (VHH)
VHH: EVQLVESGGGLVQAGGSLRLSCAASGFAFSSYWMGWFRQAPGKERELVAARNSGGNTNYADSVKGRFTISADNAKNTVYLQMNSLKPEDTAVYYCAADVWYGSTWRNWGQGTQVTVSS
notes: not shown: V5-His tag
B20: TIGIT-30-40 VHH-V5-His (VHH)
VHH: EVQLVESGGGLVQAGGSLRLSCAASGFTFSGNWMGWFRQAPGKEREWVVGISSGGSTHYADSVKGRFTISADNAKNTVYLQMNSLKPEDTAVYYCAADVWYGSTWRNWGQGTQVTVSS
notes: not shown: V5-His tag
B21: TIGIT-29-18 VHH-V5-His (VHH)
VHH: EVQLVESGGGLVQAGGSLRLSCAASGSTFSNYAMGWFRQAPGKEREFVSAINSSGSRTYYADSVKGRFTISADNAKNTVYLQMNSLKPEDTAVYYCAARLWGTWTAGDYDYWGQGTQVTVSS
notes: not shown: V5-His tag
B22: TIGIT-29-22 VHH-V5-His (VHH)
VHH: EVQLVESGGGLVQAGGSLRLSCAASGSILSSYTMGWFRQAPGKEREFVSTISRSSTRTYYADSVKGRFTISADNAKNTVYLQMNSLKPEDTAVYYCAARLWGTWTAGDYDYWGQGTQVTVSS
notes: not shown: V5-His tag
B23: TIGIT-29-34 VHH-V5-His (VHH)
VHH: EVQLVESGGGLVQAGGSLRLSCAASGFTFRNYAMGWFRQAPGKEREFVSSISSSSSRTSYADSVKGRFTISADNAKNTVYLQMNSLKPEDTAVYYCAARLWGTWTAGDYDYWGQGTQVTVSS
notes: not shown: V5-His tag
B24: TIGIT-30-20 VHH-V5-His (VHH)
VHH: EVQLVESGGGLVQAGGSLRLSCAASGPTFSIYDMGWFRQAPGKEREFVAVINWSRGSTFYADSVKGRFTISADNAKNTVYLQMNSLKPEDTAVYYCAAGVWSSLRHTAANWGQGTQVTVSS
notes: not shown: V5-His tag

A word on the Kd: it is the equilibrium constant for the complex coming apart. High values mean lower affinity, low ones higher affinity. In general, koff refers to the rate constant with which the complex falls apart. The kon is a measure of how fast the partners come together. Low values mean slow association, high ones fast association.

The first assay addresses T1, TIGIT (T cell immunoreceptor with Ig …). Description: ELISA. A general note: In an ELISA, binding on a coated surface is turned into a signal by an enzyme label.
B1 showed an ELISA of 15.

Another assay has the same target. Description: SPR kinetics. In general terms: SPR reads the build-up and loss of mass on a sensor chip optically.
Regarding B2, the Kd turned out to be 355 nM, the koff turned out to be 0.0756 s⁻¹ and the kon is 213000 M⁻¹ s⁻¹.
As to B3, the dissociation constant (Kd) came out at 683 nM, the off-rate constant (koff) was found to be 0.0417 s⁻¹ and the kon turned out to be 61000 M⁻¹ s⁻¹.
In the same order, the values of B4 are 574000 nM, 0.098 s⁻¹ and 171 M⁻¹ s⁻¹.
In the same order, the values of B5 are 1240 nM, 0.0281 s⁻¹ and 22700 M⁻¹ s⁻¹.
In the same order, the values of B6 are 269000 nM, 0.105 s⁻¹ and 389 M⁻¹ s⁻¹.
The molecule B1 yielded a dissociation constant Kd of 221 nM, a koff of 0.326 s⁻¹ and a kon of 1.48e+06 M⁻¹ s⁻¹.

A further assay deals with T2, TIGIT (T cell immunoreceptor with Ig …). Description: SPR, VHH-V5-His.
In turn, B7 registered a koff of 0.004 s⁻¹ and an association rate constant (kon) of 20000 M⁻¹ s⁻¹.
As for B8, the affinity, expressed as Kd, was 387 nM; the koff was 0.006 s⁻¹; the association rate constant (kon) was determined as 10000 M⁻¹ s⁻¹.
In the same order, the values of B9 are 4240 nM, 0.1 s⁻¹ and 30000 M⁻¹ s⁻¹.
Consider B10, for which the equilibrium dissociation constant (Kd) is 433000 nM and the off-rate (koff) came to 0.02 s⁻¹.
The molecule B11 displayed an off-rate (koff) of 0.01 s⁻¹ and an on-rate constant (kon) of 30000 M⁻¹ s⁻¹.
The molecule B12 displayed a Kd of 1520 nM, a koff of 0.04 s⁻¹ and a kon of 20000 M⁻¹ s⁻¹.
On to B13, for which the koff was determined as 0.08 s⁻¹ and the kon came out at 300000 M⁻¹ s⁻¹.
In the case of B14, the koff amounted to 0.1 s⁻¹ and the kon stood at 10000 M⁻¹ s⁻¹.
With B15, the koff turned out to be 0.004 s⁻¹ and the kon is 8000 M⁻¹ s⁻¹.
In turn, B16 yielded an off-rate constant (koff) of 0.08 s⁻¹ and a kon of 90000 M⁻¹ s⁻¹.
Regarding B17, the off-rate (koff) was found to be 0.003 s⁻¹ and the on-rate (kon) was 10000 M⁻¹ s⁻¹.
In the same order, the values of B18 are 0.008 s⁻¹ and 70000 M⁻¹ s⁻¹.
B19 displayed a koff of 0.08 s⁻¹ and a kon of 10000 M⁻¹ s⁻¹.
Molecule B20 came in with a koff of 0.006 s⁻¹ and an association rate constant (kon) of 30000 M⁻¹ s⁻¹.
Regarding B21, the koff amounted to 0.007 s⁻¹ and the kon was found to be 20000 M⁻¹ s⁻¹.
Turning to B22, the koff came to 0.003 s⁻¹ and the kon is 6000 M⁻¹ s⁻¹.
In the same order, the values of B23 are 0.03 s⁻¹ and 30000 M⁻¹ s⁻¹.
For the molecule B24, the off-rate constant (koff) was found to be 0.002 s⁻¹ and the on-rate (kon) is 10000 M⁻¹ s⁻¹.
